From patent US20120164159A1 (OPSONA THERAPEUTICS, published 2012)
Values belong to the binder of their own block, whether it stands above or below them.

Tests used:
[1] = target: T1, rmTLR2/Fc (recombinant murine TLR-2) (Mus musculus, UniProt Q9QUN7 25-587, limits assumed); experiment: SPR, Biacore T100, antibody amine-coupled to CM5 chip, receptor as analyte, bivalent binding model, 25 C
T1 construct: Recombinant Fc fusion used as SPR analyte, MW of 98 kDa printed; also called murine receptor
T1 sequence: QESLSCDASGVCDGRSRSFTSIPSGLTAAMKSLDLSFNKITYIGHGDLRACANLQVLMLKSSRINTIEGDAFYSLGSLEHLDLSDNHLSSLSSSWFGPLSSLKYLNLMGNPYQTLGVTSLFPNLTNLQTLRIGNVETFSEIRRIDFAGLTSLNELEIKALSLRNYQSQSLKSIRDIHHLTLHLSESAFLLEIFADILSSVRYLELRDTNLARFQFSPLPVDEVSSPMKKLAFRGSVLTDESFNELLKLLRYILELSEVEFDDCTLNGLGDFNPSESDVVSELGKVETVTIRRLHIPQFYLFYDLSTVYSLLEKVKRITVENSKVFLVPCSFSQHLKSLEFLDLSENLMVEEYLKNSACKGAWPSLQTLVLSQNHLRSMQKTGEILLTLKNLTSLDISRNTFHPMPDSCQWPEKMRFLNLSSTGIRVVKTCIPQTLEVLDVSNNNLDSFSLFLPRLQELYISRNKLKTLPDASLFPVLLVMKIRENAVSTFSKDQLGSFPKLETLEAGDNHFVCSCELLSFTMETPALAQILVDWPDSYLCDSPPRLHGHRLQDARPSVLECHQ
Method: (§1) Upon insertion of the CM5 chip the system was primed and then normalised with BIAnormalising solution (Biacore Preventative Maintenance Kit 2). All samples were run at 25° C. with a sample rack incubated at 25° C. unless stated. The chip was added to the system with HBS-EP used as the running buffer. The chip surface was primed with two 30 second injections of 50 mM NaOH then left until a stable baseline was obtained in all the Flow cells (Fcs).
(§2) All antibodies were immobilised using standard amine coupling chemistry. Immobilisation was carried out at a protein concentration of around 1 μg.ml-1 in 10 mM Acetate buffer pH5.5 to a target response level of 150RUs on three CM5 Series S sensor chips. Kinetic data was obtained at a flow rate of 40 μl·min-1 to minimise any potential mass transfer effects. The blank (no receptor) and a single concentration of the analytes (100 nM) was repeated at the start of the kinetic runs in order to check the stability of both the surface and two receptors over the kinetic analyses. Two repeats of the kinetic analysis were carried out and the results compared.
(§3) Association rates (Kₒₙ) and dissociation rates (Koff) were calculated using a bivalent binding model (BIAcore Evaluation Software version 3.2). The equilibrium dissociation constant (Ko) was calculated as the ratio […].

[2] = target: T2, rhTLR-2 (recombinant human TLR-2) (human, UniProt O60603 21-588, limits assumed); experiment: as above
T2 construct: Soluble recombinant protein reconstituted from dry powder, used as SPR analyte; also called glycosylated human receptor analyte
Method: as §1, §2, §3

[3] = target: T3, monkey Toll-like Receptor 2 expressed on cynomologus monkey whole blood cells (granulocytes, monocytes) (cynomologus monkey, UniProt Q95M53 19-784); experiment: FACS, cynomolgus whole blood, gate Granulocytes (R3), OPN305 + FITC mouse anti-hIgG4 [A]
T3 construct: whole, on cells; also called monkey TLR2

[4] = target: T3, monkey Toll-like Receptor 2 expressed …; experiment: FACS, cynomolgus whole blood, gate Granulocytes (R3), biotinylated OPN301, detection SA-PECy7 [A]
Method: Cells were then washed and incubated with streptavidin conjugated to PECy7 for a further 30 minutes.
Binding was measured using FACScalibur from Becton Dickinson. FIG. 14A relates to granulocytes. FIG. 14B relates to monocytes. FIG. 14C relates to lymphocytes. […] Accordingly, it can again be seen that OPN305 is competing for monkey Toll-like Receptor 2 binding.

T2 sequence (O60603 21-588 limits assumed): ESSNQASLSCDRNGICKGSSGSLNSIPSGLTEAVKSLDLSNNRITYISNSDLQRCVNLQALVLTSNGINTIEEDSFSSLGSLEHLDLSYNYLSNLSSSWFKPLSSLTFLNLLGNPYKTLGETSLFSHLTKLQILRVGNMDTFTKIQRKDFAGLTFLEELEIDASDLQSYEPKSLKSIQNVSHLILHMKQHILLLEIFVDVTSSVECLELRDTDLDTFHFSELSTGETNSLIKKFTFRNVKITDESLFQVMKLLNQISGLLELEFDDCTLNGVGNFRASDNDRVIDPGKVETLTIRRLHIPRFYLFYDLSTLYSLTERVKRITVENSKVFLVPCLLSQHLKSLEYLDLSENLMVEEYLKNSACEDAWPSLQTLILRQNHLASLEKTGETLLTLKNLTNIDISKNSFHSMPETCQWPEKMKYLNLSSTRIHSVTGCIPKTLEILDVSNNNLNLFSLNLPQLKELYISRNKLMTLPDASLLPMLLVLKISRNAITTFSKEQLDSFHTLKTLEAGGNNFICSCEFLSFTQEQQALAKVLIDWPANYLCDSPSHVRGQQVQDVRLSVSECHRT
T3 sequence (Q95M53 19-784): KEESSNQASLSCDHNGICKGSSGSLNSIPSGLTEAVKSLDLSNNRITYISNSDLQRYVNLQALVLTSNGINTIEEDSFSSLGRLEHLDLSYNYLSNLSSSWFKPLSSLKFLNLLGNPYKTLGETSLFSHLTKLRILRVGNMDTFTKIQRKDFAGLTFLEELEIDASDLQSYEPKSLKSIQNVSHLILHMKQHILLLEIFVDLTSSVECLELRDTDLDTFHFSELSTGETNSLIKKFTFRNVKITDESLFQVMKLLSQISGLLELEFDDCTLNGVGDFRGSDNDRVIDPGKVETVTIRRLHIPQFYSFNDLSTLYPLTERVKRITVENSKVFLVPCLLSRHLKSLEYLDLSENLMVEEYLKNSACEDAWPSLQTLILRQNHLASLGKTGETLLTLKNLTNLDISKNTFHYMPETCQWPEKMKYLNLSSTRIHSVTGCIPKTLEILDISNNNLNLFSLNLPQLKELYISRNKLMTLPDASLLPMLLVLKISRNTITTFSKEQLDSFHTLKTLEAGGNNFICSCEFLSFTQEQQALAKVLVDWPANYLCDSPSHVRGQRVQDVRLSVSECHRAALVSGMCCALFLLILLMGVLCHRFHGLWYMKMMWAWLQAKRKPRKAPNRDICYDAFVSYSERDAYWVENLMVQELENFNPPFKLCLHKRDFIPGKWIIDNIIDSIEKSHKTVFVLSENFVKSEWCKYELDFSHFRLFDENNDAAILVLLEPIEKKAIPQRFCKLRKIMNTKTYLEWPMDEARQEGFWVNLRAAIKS

Kd [1]: 11.9 nM | koff [1]: 8.2e-05 s⁻¹ | kon [1]: 6770 M⁻¹ s⁻¹ | Kd [2]: 28.9 nM | koff [2]: 8.95e-05 s⁻¹ | kon [2]: 3100 M⁻¹ s⁻¹ | binding result [3]: binds
B1: OPN-305 fully humanised anti-Toll-like Receptor 2 monoclonal antibody (antibody, human IgG4 S228P, kappa, V domains shown)
VH: QVQLVQSGSELKKPGASVKLSCKASGFTFTTYGINWVRQAPGQGLEWIGWIYPRDGSTNFNENFKDRATITVDTSASTAYMELSSLRSEDTAVYFCARLTGGTFLDYWGQGTTVTVSS
VL: DIVLTQSPATLSLSPGERATLSCRASESVEYYGTSLMQWYQQKPGQPPKLLIFGASNVESGVPDRFSGSGSGTDFTLKISRVEAEDVGMYFCQQSRKLPWTFGGGTKVEIKR
notes: made in NS0 cells; also called variant 21

binding result [4]: binds | Kd [1]: 15.6 nM | koff [1]: 0.000141 s⁻¹ | kon [1]: 9700 M⁻¹ s⁻¹ | Kd [2]: 48.2 nM | koff [2]: 0.00023 s⁻¹ | kon [2]: 4820 M⁻¹ s⁻¹
B2: T2.5 murine anti-Toll-like Receptor 2 monoclonal antibody (clone T2.5, HyCult Biotechnology, catalogue number 1054) (antibody, mouse IgG1, V domains shown)
VH: QVQLQQSGPELVNPGASVKLSCKASGFTFTTYGINWVKQGPGQGLEWIGWIYPRDGSTNFNENFKDKAALTVDTSSSTAYMELHSLTSEDSAVYFCARLTGGTFLDYWGQGTTLTVSS
VL: DIVLTQSPASLAVSLGQRATISCRASESVEYYGTSLMQWYQQKPGQPPKLLIFGASNVESGVPVRFSGSGSGTDFSLNIHPVEEDDIVMYFCQQSRKLPWTFGGGTKLEIK
notes: Murine IgG1, bought; also called OPN301
